Like-named read-outs stand apart in the source and are kept apart here. Each block holds one substance with its values, some of them ahead of it.
Columns and labels:
[1] = molecular target: Her2 on cells (SKOV3, JIMT-1, MCF7) (human (endogenous in SKOV3, JIMT-1, MCF7)) (UniProt P04626); test: flow cytometry on cells; saturation binding of full-size antibodies on live low-Her2 MCF7 cells, 4°C 2 h, 0 to 200 nM or 1 μM, washed, anti-human Fc AlexaFluor488-(Fab')2 detection; apparent KD
[2] = molecular target: Her2 on cells (SKOV3, JIMT-1, MCF7) (human (endogenous in SKOV3, JIMT-1, MCF7)) (UniProt P04626); test: flow cytometry on cells; saturation binding of full-size antibodies on live high-Her2 SKOV3 cells, 4°C 2 h, 0 to 200 nM or 1 μM, washed, anti-human Fc AlexaFluor488-(Fab')2 detection; apparent KD
[3] = molecular target: soluble Her2 ectodomain (Homo sapiens (assumed; species and source not stated)) (UniProt P04626); test: SPR; antibody captured on an anti-hFc CM-5 surface, soluble Her2 ectodomain flowed (monovalent binding); single cycle kinetics in duplicate, 25°C, PBS with […] EDTA and 0.05% Tween 20; 1:1 binding model; Biacore T200
[4] = molecular target: Her2 (human (endogenous in SKOV3 and JIMT-1)) (UniProt P04626)
[5] = molecular target: Her2 (human (endogenous in SKOV3 and JIMT-1)) (UniProt P04626); remark: listed apart in the source
[6] = molecular target: Her2 on cells (SKOV3, JIMT-1, MCF7) (human (endogenous in SKOV3, JIMT-1, MCF7)) (UniProt P04626)
[7] = molecular target: Her2 on cells (SKOV3, JIMT-1, MCF7) (human (endogenous in SKOV3, JIMT-1, MCF7)) (UniProt P04626); remark: listed apart in the source
[8] = molecular target: Herceptin full-size antibody variant 7–5 (H-Y57A, L-F53N, L-Y92A); test: SPR; antibody captured on an anti-hFc CM-5 surface, soluble Her2 ectodomain flowed (monovalent binding); single cycle kinetics in duplicate, 25°C, PBS with […] EDTA and 0.05% Tween 20; 1:1 binding model; Biacore T200
[9] = molecular target: Herceptin full-size antibody variant 7–6 (H-Y57A, L-N30D); test: as above
[10] = molecular target: bH1 full-size antibody variant 14–13 (H-D98W, H-G99D); test: as above
[11] = molecular target: bH1 full-size antibody variant 15–13 (H-G99D); test: as above
[12] = molecular target: bH1 full-size antibody variant 16–13 (H-G99R); test: as above
[13] = molecular target: Her2 (human (endogenous in SKOV3 and JIMT-1)) (UniProt P04626); remark: listed apart in the source
[14] = molecular target: Her2 (human (endogenous in SKOV3 and JIMT-1)) (UniProt P04626); remark: listed apart in the source
[15] = molecular target: Her2 (human (endogenous in SKOV3 and JIMT-1)) (UniProt P04626); remark: listed apart in the source
[16] = molecular target: Her2 (human (endogenous in SKOV3 and JIMT-1)) (UniProt P04626); remark: listed apart in the source

Substance: Herceptin full-size antibody variant 11-9 (H-D98F, H-D31M, L-D28K)
EC50 of internalization, direct (pHAb-conjugated antibody variant), JIMT-1 cells, 37°C, 18 h, high content imaging [5]: 70 pM | EC50 of internalization, direct (pHAb-conjugated antibody variant), SKOV3 cells, 37°C, 18 h, high content imaging [5]: 0.32 nM | EC50 of internalization, indirect (antibody variant + pHAb-secondary antibody), SKOV3 cells, 37°C, 18 h, high content imaging [5]: 0.44 nM

Substance: Herceptin full-size antibody variant 7–3 (H-Y57A, L-F53N)
Kd [1]: 0.67 nM | Kd [2]: 2.34 nM | Kd [3]: 16.1 nM

Substance: Herceptin full-size antibody variant 7–1 (H-Y57A)
Kd [1]: 0.52 nM | Kd [2]: 2.27 nM | Kd [3]: 1.6 nM

Substance: Herceptin full-size antibody variant 7-5 (H-Y57A, L-F53N, L-Y92A)
EC50 of internalization, direct (pHAb-conjugated antibody variant), SKOV3 cells, 37°C, 18 h, high content imaging [14]: 0.0192 µM | EC50 of internalization, indirect (antibody variant + pHAb-secondary antibody), SKOV3 cells, 37°C, 18 h, high content imaging [14]: 0.00199 µM

Substance: bH1 full-size antibody variant 14-13 (H-D98W, H-G99D)
EC50 of internalization, direct (pHAb-conjugated antibody variant), SKOV3 cells, 37°C, 18 h, high content imaging [15]: 0.059 µM | EC50 of internalization, indirect (antibody variant + pHAb-secondary antibody), SKOV3 cells, 37°C, 18 h, high content imaging [15]: 0.00375 µM

Substance: Herceptin full-size antibody variant 2–4 (L-Y92A)
Kd [1]: 0.39 nM | Kd [2]: 1.98 nM | Kd [3]: 2.32 nM

Substance: bH1 full-size antibody variant 16-13 (H-G99R)
EC50 of internalization, direct (pHAb-conjugated antibody variant), SKOV3 cells, 37°C, 18 h, high content imaging [16]: 0.0749 µM

Second part, led by results:

Kd [1]: 0.47 nM | Kd [2]: 2.41 nM | Kd [3]: 18 nM
Substance: Herceptin full-size antibody variant 7–4 (H-Y57A, L-Y92A)

EC50 of internalization, direct (pHAb-conjugated antibody variant), JIMT-1 cells, 37°C, 18 h, high content imaging [4]: 70 pM | EC50 of internalization, direct (pHAb-conjugated antibody variant), SKOV3 cells, 37°C, 18 h, high content imaging [4]: 0.41 nM | EC50 of internalization, indirect (antibody variant + pHAb-secondary antibody), SKOV3 cells, 37°C, 18 h, high content imaging [4]: 0.41 nM
Substance: Herceptin full-size antibody variant 12-9 (H-D98F, H-D31K, L-D28K)

Kd [1]: 0.95 nM | Kd [2]: 3.16 nM
Substance: Herceptin full-size antibody variant 7–6 (H-Y57A, L-N30D)

Kd [1]: 594 nM | Kd [2]: 3.5 nM
Substance: Herceptin full-size antibody variant 7–5 (H-Y57A, L-F53N, L-Y92A)
IC50 of cytotoxicity, indirect ADC screen (DM1-conjugated secondary antibody), JIMT1 cells [6]: 15.7 nM | IC50 of cytotoxicity, indirect ADC screen (MMAE-conjugated secondary antibody), JIMT1 cells [6]: 11000 nM | IC50 of cytotoxicity, indirect ADC screen (MMAE-conjugated secondary antibody), MCF7 cells [6]: 32.4 nM | IC50 of cytotoxicity, indirect ADC screen (MMAE-conjugated secondary antibody), SKOV3 cells [6]: 0.204 nM | IC50 of cytotoxicity, antibody directly conjugated to DM1, SKOV3 cells [7]: 2.01 nM | IC50 of cytotoxicity, antibody directly conjugated to PNU, SKOV3 cells [7]: 2.08 nM

Kd [8]: 68.1 nM | Kd [9]: 43.2 nM | Kd [10]: 253 nM | kon [10]: 78000 M⁻¹ s⁻¹ | Kd [11]: 298 nM | Kd [12]: 417 nM | kon [12]: 120000 M⁻¹ s⁻¹
Substance: soluble Her2 ectodomain (from UniProt P04626 23-652) (domain or fragment)

Kd [1]: 0.3 nM | Kd [2]: 1.95 nM | Kd [3]: 2.1 nM
Substance: Herceptin full-size antibody variant 2–3 (L-F53N)

EC50 of internalization, direct (pHAb-conjugated antibody variant), JIMT-1 cells, 37°C, 18 h, high content imaging [13]: 0.21 nM | EC50 of internalization, direct (pHAb-conjugated antibody variant), SKOV3 cells, 37°C, 18 h, high content imaging [13]: 0.32 nM | EC50 of internalization, indirect (antibody variant + pHAb-secondary antibody), SKOV3 cells, 37°C, 18 h, high content imaging [13]: 0.55 nM
Substance: WT Herceptin full-size antibody (variant 2-1, Parent 1)

Kd [2]: 1.98 nM | Kd [3]: 22.6 nM
Substance: Herceptin full-size antibody variant 2–5 (L-F53N, L-Y92A)
IC50 of cytotoxicity, indirect ADC screen (DM1-conjugated secondary antibody), JIMT1 cells [6]: 8.7 nM | IC50 of cytotoxicity, indirect ADC screen (DM1-conjugated secondary antibody), MCF7 cells [6]: 8.1 nM | IC50 of cytotoxicity, indirect ADC screen (MMAE-conjugated secondary antibody), JIMT1 cells [6]: 24.4 nM | IC50 of cytotoxicity, indirect ADC screen (MMAE-conjugated secondary antibody), MCF7 cells [6]: 20.6 nM | IC50 of cytotoxicity, antibody directly conjugated to DM1, SKOV3 cells [7]: 0.161 nM | IC50 of cytotoxicity, antibody directly conjugated to PNU, MCF7 cells [7]: 4.72 nM | IC50 of cytotoxicity, antibody directly conjugated to PNU, SKOV3 cells [7]: 0.138 nM

Kd [1]: 0.51 nM | Kd [2]: 2.58 nM | Kd [3]: 6.85 nM
Substance: Herceptin full-size antibody variant 2–6 (L-N30D)

— article PMC6938348
